“Also recorded” adds a separate entry of the source.
Experiments:
[1] = test system: subjects with symptomatic eosinophilic esophagitis (EoE); test: Phase 2 study in EoE patients: subject's global assessment of disease severity; format: in vivo, human; details: for subject's global assessment of disease severity, Mean change / subject's global assessment of disease severity, LSMD versus placebo: Change to Week 16; for subject's global assessment of disease severity, LSMD versus placebo: ANCOVA
Method: North America and Switzerland. […] Safety was monitored throughout the study. […] The study was powered for the primary endpoint. […] Still further, the effectiveness of RPC4046 (over placebo) in lowering a subject's global assessment of disease severity at week 16 was analyzed.

[2] = test system: subjects with symptomatic eosinophilic esophagitis (EoE); test: Phase 2 study in EoE patients: peak esophageal eosinophil count; format: in vivo, human; details: for peak esophageal eosinophil count, Mean change / peak esophageal eosinophil count, LSMD versus placebo: Change to Week 16; for peak esophageal eosinophil count, LSMD versus placebo: ANCOVA
Excerpt: North America and Switzerland. […] Safety was monitored throughout the study. […] The study was powered for the primary endpoint. […] To maximize consistency, biopsies were obtained from proximal and distal esophagus (i.e., 4 biopsy fragments from each level) at screening. Additional biopsies from mid-esophagus was encouraged and effort was made to obtain subsequent biopsies from the same levels. The biopsies were blinded and read by single central pathologist. To be eligible for trial, subjects were evaluated for peak eosinophil count of ≥15/HPF, from 2 of 3 (proximal, mid-, and/or distal) levels of the esophagus at the screening endoscopy. Next, the effectiveness of RPC4046 (over placebo) in lowering peak esophageal eosinophil count in EoE subjects at week 16 was analyzed.

[3] = test system: subjects with symptomatic eosinophilic esophagitis (EoE); test: Phase 2 study in EoE patients: safety, treatment-emergent adverse events (TEAE)
Method: A double-blind, placebo-controlled, dose-finding study was conducted at 40 canters in North America and Switzerland. Patients with EoE (n=100, aged 18-65) were randomized to 180 mg (low dose; LD) or 360 mg (high dose; HD) RPC4046 or PBO (1:1:1) in a Day 1 intravenous loading dose, followed by weekly subcutaneous doses for 15 weeks. […] Safety was monitored throughout the study.
Additionally, various safety and tolerability endpoints are also measurable. Safety and tolerability parameters are evaluated by the incidence, severity, and relationship of adverse events (AEs), serious AEs (SAEs), clinical laboratory abnormalities, changes in vital signs, physical examination abnormalities, and the presence of anti-drug antibodies.

[4] = test system: subjects with symptomatic eosinophilic esophagitis (EoE); test: Phase 2 study in EoE patients: subject's global impression; format: in vivo, human; details: therapy arm; week 16
Excerpt: (§1) Safety was monitored throughout the study. […] The study was powered for the primary endpoint.

[5] = test system: subjects with symptomatic eosinophilic esophagitis (EoE); test: Phase 2 study in EoE patients: clinician's global assessment of disease severity; format: in vivo, human; details: for clinician's global assessment of disease severity, Mean change / clinician's global assessment of disease severity, LSMD versus placebo: Change to Week 16; for clinician's global assessment of disease severity, LSMD versus placebo: ANCOVA
Excerpt: as §1

[6] = test system: subjects with symptomatic eosinophilic esophagitis (EoE); test: Phase 2 study in EoE patients: EEsAI PRO score; format: in vivo, human; design: EEsAI PRO score, Mean / EEsAI PRO score, Median: scale not given here; details: for EEsAI PRO score, Mean change / EEsAI PRO score, LSMD versus placebo: Change to Week 16
Method: Additionally, a comparison of the mean EEsAI PRO scores at baseline and at week 16 between the placebo group and the treatment group was conducted.

[7] = target: T1, human type IL-13 (Homo sapiens, UniProt P35225, Q144R); details: see US patent pub. No. 2014/0341913; cited from earlier work
[8] = target: T1, human type IL-13; test: Binding of the antibody to IL-13
[9] = 180 mg (N = 31), safety population
[10] = 360 mg (N = 34), safety population

T1 sequence (P35225 15-146 Q144R limits assumed): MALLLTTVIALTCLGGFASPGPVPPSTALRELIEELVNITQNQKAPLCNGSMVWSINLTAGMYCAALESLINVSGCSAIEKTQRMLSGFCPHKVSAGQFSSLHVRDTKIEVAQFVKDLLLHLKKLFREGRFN

B1: RPC4046: recombinant humanized, high-affinity, selective anti-IL-13 monoclonal antibody; heavy chain variable region SEQ ID NO: 2, light chain variable region SEQ ID NO: 3 (antibody, V domains shown)
VH: EVTLRESGPGLVKPTQTLTLTCTLYGFSLSTSDMGVDWIRQPPGKGLEWLAHIWWDDVKRYNPALKSRLTISKDTSKNQVVLKLTSVDPVDTATYYCARTVSSGYIYYAMDYWGQGTLVTVSS
VL: DIQMTQSPSSLSASVGDRVTISCRASQDIRNYLNWYQQKPGKAPKLLIFYTSKLHSGVPSRFSGSGSGTDYTLTISSLQPEDIATYYCQQGNTLPLTFGGGTKVEIK
- subject's global assessment of disease severity, Mean ([1]; 180 mg, Baseline): 5.0
- subject's global assessment of disease severity, Median ([1]; 180 mg, Baseline): 5.0
- subject's global assessment of disease severity, Mean change ([1]; 180 mg): −2.0
- subject's global assessment of disease severity, LSMD versus placebo ([1]; 180 mg): −0.9
- subject's global assessment of disease severity, Mean ([1]; 180 mg, Week 16): 2.8
- subject's global assessment of disease severity, Median ([1]; 180 mg, Week 16): 3.0
- subject's global assessment of disease severity, Mean ([1]; 360 mg, Baseline): 5.4
- subject's global assessment of disease severity, Median ([1]; 360 mg, Baseline): 5.0
- subject's global assessment of disease severity, Mean change ([1]; 360 mg): −2.8
- subject's global assessment of disease severity, LSMD versus placebo ([1]; 360 mg): −1.3
- subject's global assessment of disease severity, Mean ([1]; 360 mg, Week 16): 2.5
- subject's global assessment of disease severity, Median ([1]; 360 mg, Week 16): 2.0
- subject's global assessment of disease severity at week 16 over placebo ([1]; treatment arm, 180 mg and 360 mg, week 16): dose-dependent reduction
- peak esophageal eosinophil count, Mean ([2]; 180 mg, Baseline): 131.9 cells/hpf
- peak esophageal eosinophil count, Median ([2]; 180 mg, Baseline): 113.0 cells/hpf
- peak esophageal eosinophil count, Mean change ([2]; 180 mg): −106.6 cells/hpf
- peak esophageal eosinophil count, LSMD versus placebo ([2]; 180 mg): −80.6 cells/hpf
- peak esophageal eosinophil count, Mean ([2]; 180 mg, Week 16): 28.9 cells/hpf
- peak esophageal eosinophil count, Median ([2]; 180 mg, Week 16): 15.0 cells/hpf
- peak esophageal eosinophil count, Mean ([2]; 360 mg, Baseline): 139.4 cells/hpf
- peak esophageal eosinophil count, Median ([2]; 360 mg, Baseline): 132.0 cells/hpf
- peak esophageal eosinophil count, Mean change ([2]; 360 mg): −111.3 cells/hpf
- peak esophageal eosinophil count, LSMD versus placebo ([2]; 360 mg): −79.8 cells/hpf
- peak esophageal eosinophil count, Mean ([2]; 360 mg, Week 16): 31.3 cells/hpf
- peak esophageal eosinophil count, Median ([2]; 360 mg, Week 16): 15.0 cells/hpf
- lowering of esophageal eosinophil counts over placebo at week 16 ([2]; both low (180 mg) and high dose (360 mg)): achieved statistical significance
- Number of subjects experiencing Death related to study drug [3, 9]: 0 n
- Number of subjects experiencing ≥1 TEAE [3, 9]: 20 n
- Number of subjects experiencing ≥1 TEAE leading to study drug d/c [3, 9]: 1 n
- Number of subjects experiencing ≥1 TEAE with fatal outcome [3, 9]: 0 n
- Number of subjects experiencing ≥1 moderate or severe TEAE [3, 9]: 7 n
- Number of subjects experiencing ≥1 possible, probable, or related TEAE [3, 9]: 11 n
- Number of subjects experiencing ≥1 related TEAE [3, 9]: 3 n
- Number of subjects experiencing ≥1 related serious TEAE [3, 9]: 0 n
- Number of subjects experiencing ≥1 serious TEAE [3, 9]: 0 n
- Number of subjects experiencing ≥1 severe TEAE [3, 9]: 2 n
- Subjects experiencing ≥1 TEAE [3, 9]: (64.5) %
- Subjects experiencing ≥1 TEAE leading to study drug d/c [3, 9]: (3.2) %
- Subjects experiencing ≥1 moderate or severe TEAE [3, 9]: (22.6) %
- Subjects experiencing ≥1 possible, probable, or related TEAE [3, 9]: (35.5) %
- Subjects experiencing ≥1 related TEAE [3, 9]: (9.7) %
- Subjects experiencing ≥1 severe TEAE [3, 9]: (6.5) %
- safety and tolerability ([3]; 180 mg and 360 mg, 16-week treatment): well-tolerated with a favorable safety profile; also recorded: generally safe and well-tolerated
- Number of subjects experiencing Death related to study drug [3, 10]: 0 n
- Number of subjects experiencing ≥1 TEAE [3, 10]: 29 n
- Number of subjects experiencing ≥1 TEAE leading to study drug d/c [3, 10]: 3 n
- Number of subjects experiencing ≥1 TEAE with fatal outcome [3, 10]: 0 n
- Number of subjects experiencing ≥1 moderate or severe TEAE [3, 10]: 11 n
- Number of subjects experiencing ≥1 possible, probable, or related TEAE [3, 10]: 18 n
- Number of subjects experiencing ≥1 related TEAE [3, 10]: 5 n
- Number of subjects experiencing ≥1 related serious TEAE [3, 10]: 0 n
- Number of subjects experiencing ≥1 serious TEAE [3, 10]: 1 n
- Number of subjects experiencing ≥1 severe TEAE [3, 10]: 2 n
- Subjects experiencing ≥1 TEAE [3, 10]: (85.3) %
- Subjects experiencing ≥1 TEAE leading to study drug d/c [3, 10]: (8.8) %
- Subjects experiencing ≥1 moderate or severe TEAE [3, 10]: (32.4) %
- Subjects experiencing ≥1 possible, probable, or related TEAE [3, 10]: (52.9) %
- Subjects experiencing ≥1 related TEAE [3, 10]: (14.7) %
- Subjects experiencing ≥1 serious TEAE [3, 10]: (2.9) %
- Subjects experiencing ≥1 severe TEAE [3, 10]: (5.9) %
- most-frequently reported adverse events ([3]; phase 2 study): headache, URI, arthralgia, nasopharyngitis, sinusitis, abdominal pain and oropharyngeal pain
- infusional hypersensitivity events ([3]; treatment groups): no reported instances of infusional hypersensitivity events
- subjects responding as feeling a lot better or a little better compared to placebo [4]: larger number of subjects
- clinician's global assessment of disease severity, Mean ([5]; 180 mg, Baseline): 6.7
- clinician's global assessment of disease severity, Median ([5]; 180 mg, Baseline): 7.0
- clinician's global assessment of disease severity, Mean change ([5]; 180 mg): −3.6
- clinician's global assessment of disease severity, LSMD versus placebo ([5]; 180 mg): −1.7
- clinician's global assessment of disease severity, Mean ([5]; 180 mg, Week 16): 2.9
- clinician's global assessment of disease severity, Median ([5]; 180 mg, Week 16): 2.0
- clinician's global assessment of disease severity, Mean ([5]; 360 mg, Baseline): 6.1
- clinician's global assessment of disease severity, Median ([5]; 360 mg, Baseline): 6.0
- clinician's global assessment of disease severity, Mean change ([5]; 360 mg): −2.9
- clinician's global assessment of disease severity, LSMD versus placebo ([5]; 360 mg): −1.3
- clinician's global assessment of disease severity, Mean ([5]; 360 mg, Week 16): 3.2
- clinician's global assessment of disease severity, Median ([5]; 360 mg, Week 16): 3.0
- clinician's global assessment of disease severity at week 16 ([5]; both the low and the high dose, week 16): achieved statistical significance
- mean EEsAI PRO at week 16 ([6]; 180 mg and 360 mg, week 16): dose-dependent reduction
- EEsAI PRO score, Mean ([6]; 180 mg, Baseline): 58.1
- EEsAI PRO score, Median ([6]; 180 mg, Baseline): 61.0
- EEsAI PRO score, Mean change ([6]; 180 mg): −19.8
- EEsAI PRO score, LSMD versus placebo ([6]; 180 mg, ANCOVA): −4.0
- EEsAI PRO score, Mean ([6]; 180 mg, Week 16): 39.3
- EEsAI PRO score, Median ([6]; 180 mg, Week 16): 49.0
- EEsAI PRO score, LSMD versus placebo ([6]; 180 mg, non-steroid-refractory): 4.9
- EEsAI PRO score, Mean change ([6]; 180 mg, non-steroid-refractory): −20.4
- EEsAI PRO score, LSMD versus placebo ([6]; 180 mg, steroid refractory): −13.5
- EEsAI PRO score, Mean change ([6]; 180 mg, steroid refractory): −19.1
- EEsAI PRO score, Mean ([6]; 360 mg, Baseline): 56.2
- EEsAI PRO score, Median ([6]; 360 mg, Baseline): 58.0
- EEsAI PRO score, Mean change ([6]; 360 mg): −23.0
- EEsAI PRO score, LSMD versus placebo ([6]; 360 mg, ANCOVA): −7.2
- EEsAI PRO score, Mean ([6]; 360 mg, Week 16): 33.2
- EEsAI PRO score, Median ([6]; 360 mg, Week 16): 30.5
- EEsAI PRO score, LSMD versus placebo ([6]; 360 mg, non-steroid-refractory): −1.2
- EEsAI PRO score, Mean change ([6]; 360 mg, non-steroid-refractory): −25.2
- EEsAI PRO score, LSMD versus placebo ([6]; 360 mg, steroid refractory): −15.5
- EEsAI PRO score, Mean change ([6]; 360 mg, steroid refractory): −20.8
- mean EEsAI PRO score in the steroid refractory sub-group ([6]; sub-group analysis, week 16): statistically significant reduction
- binding affinity to helices A and D of interleukin 13 (IL-13) [7]: binds with great affinity
- binding to human type IL-13 [8]: binds to human type IL-13
- selectivity for IL-13 [8]: highly selective for IL-13

From patent publication US12129294B2, “Methods of treatment of diseases in which IL-13 activity is detrimental using anti-IL-13 antibodies” (AbbVie Inc., priority 2016, dated 2024)
